Experimental data from patent publication US20240117334A1, “FACTOR B PROTEASES” (Vertex Pharmaceuticals Incorporated, priority 2021, published 2024).
Residue numbers refer to the chain shown, from its start. Names and notes keep the numbering of the source. One block for each binder: values may come before it.

Target: Human Factor B (human) (UniProt P00751)
Assay: cell-based or functional assay

Sequence of Human Factor B (human) (P00751 26-764 limits assumed): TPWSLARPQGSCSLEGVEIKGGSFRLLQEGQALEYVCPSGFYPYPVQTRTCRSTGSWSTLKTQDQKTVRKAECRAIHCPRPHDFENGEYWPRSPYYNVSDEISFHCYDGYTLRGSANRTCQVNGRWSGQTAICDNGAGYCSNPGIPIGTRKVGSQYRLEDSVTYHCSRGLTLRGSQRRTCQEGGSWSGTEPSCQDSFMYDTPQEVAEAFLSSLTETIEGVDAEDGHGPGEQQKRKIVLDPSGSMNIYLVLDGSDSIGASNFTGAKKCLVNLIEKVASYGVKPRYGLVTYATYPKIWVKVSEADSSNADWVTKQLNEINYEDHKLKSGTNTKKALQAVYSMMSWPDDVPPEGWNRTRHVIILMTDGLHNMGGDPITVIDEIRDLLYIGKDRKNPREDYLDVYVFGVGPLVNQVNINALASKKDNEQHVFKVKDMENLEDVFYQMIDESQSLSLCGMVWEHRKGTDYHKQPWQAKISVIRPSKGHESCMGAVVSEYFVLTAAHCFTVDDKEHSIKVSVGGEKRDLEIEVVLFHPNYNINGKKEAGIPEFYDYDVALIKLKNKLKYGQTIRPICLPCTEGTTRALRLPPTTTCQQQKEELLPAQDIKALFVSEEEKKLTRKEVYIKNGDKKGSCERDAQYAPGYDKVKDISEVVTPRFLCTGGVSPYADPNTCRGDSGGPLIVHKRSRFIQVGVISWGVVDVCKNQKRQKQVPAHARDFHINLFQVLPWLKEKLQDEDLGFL

B2: chymase C22S/P38Q/K40A/F41R/L99H/V138I/F173Y/D175N/A190S/V213A/S218L/A226R (enzyme)
chain: IIGGTESKPHSRPYMAYLEIVTSNGQSARCGGFLIRRNFVLTAAHCAGRSITVTLGAHNITEEEDTWQKLEVIKQFRHPKYNTSTHHHDIMLLKLKEKASLTLAVGTLPFPSQFNFVPPGRMCRIAGWGRTGVLKPGSDTLQEVKLRLMDPQACSHYRNFDHNLQLCVGNPRKTKSSFKGDSGGPLLCAGVAQGIASYGRLDAKPPRVFTRISHYRPWINQILQAN
fB Cleavage EC50: 139 nM

B3: chymase C22S/P38Q/K40L/F41R/V138I/F173Y/D175H/A190S/V213A/S218T/A226R (enzyme)
chain: B2 chain with A28L, H86L, N159H, L201T
fB Cleavage EC50: 121 nM

B6: chymase C22S/P38Q/K40I/F41R/L99N/V138I/D175T/A190S/V213A/S218V/A226R (enzyme)
chain: B2 chain with A28I, H86N, Y157F, N159T, L201V
fB Cleavage EC50: 203 nM

B7: chymase C22S/P38Q/K40A/F41K/L99N/V138I/D175H/A190S/V213A/S218V/A226R (enzyme)
chain: B2 chain with R29K, H86N, Y157F, N159H, L201V
fB Cleavage EC50: 121 nM

B13: chymase C22S/P38Q/K40L/F41R/L99F/V138I/F173L/D175N/A190S/V213A/A226R (enzyme)
chain: B2 chain with A28L, H86F, Y157L, L201S
fB Cleavage EC50: 631 nM

B14: chymase C22S/P38Q/K40L/F41R/V138I/F173Y/D175R/A190S/V213A/S218T/A226R (enzyme)
chain: B2 chain with A28L, H86L, N159R, L201T
fB Cleavage EC50: 223 nM

B16: chymase C22S/P38Q/K40A/F41R/L99H/V138I/D175N/A190S/V213A/S218I/A226R (enzyme)
chain: B2 chain with Y157F, L201I
fB Cleavage EC50: 170 nM

B20: chymase C22S/P38Q/K40L/F41R/L99Y/V138I/F173Y/D175N/A190S/V213A/S218V/A226R (enzyme)
chain: B2 chain with A28L, H86Y, L201V
fB Cleavage EC50: 57 nM

Now from value to binder:

fB Cleavage EC50: 277 nM
B1: chymase C22S/P38Q/K40M/F41H/L99H/V138I/D175S/A190S/V213A/S218V/A226R (enzyme)
chain: B2 chain with A28M, R29H, Y157F, N159S, L201V

fB Cleavage EC50: 472 nM
B4: chymase C22S/P38Q/K40M/F41R/L99S/V138I/F173Y/D175N/A190S/V213A/S218V/A226R (enzyme)
chain: B2 chain with A28M, H86S, L201V

fB Cleavage EC50: 717 nM
B5: chymase C22S/P38Q/K40V/F41R/V138I/F173S/D175N/A190S/V213A/S218I/A226R (enzyme)
chain: B2 chain with A28V, H86L, Y157S, L201I

fB Cleavage EC50: 100 nM
B8: chymase C22S/P38Q/K40Q/F41R/V138I/F173Y/D175N/A190S/V213A/S218V/A226R (enzyme)
chain: B2 chain with A28Q, H86L, L201V

fB Cleavage EC50: 150 nM
B9: chymase C22S/P38Q/K40Q/F41R/L99H/V138I/F173Y/D175S/A190S/V213A/S218V/A226R (enzyme)
chain: B2 chain with A28Q, N159S, L201V

fB Cleavage EC50: 500 nM
B10: chymase C22S/P38Q/K40M/F41R/L99N/V138I/F173Y/D175W/A190S/V213A/S218T/A226R (enzyme)
chain: B2 chain with A28M, H86N, N159W, L201T

fB Cleavage EC50: 301 nM
B11: chymase C22S/P38Q/K40M/F41R/L99H/V138I/D175Q/A190S/V213A/S218V/A226R (enzyme)
chain: B2 chain with A28M, Y157F, N159Q, L201V

fB Cleavage EC50: 287 nM
B12: chymase C22S/P38Q/K40M/F41R/V138I/F173S/D175Y/A190S/V213A/S218V/A226R (enzyme)
chain: B2 chain with A28M, H86L, Y157S, N159Y, L201V

fB Cleavage EC50: 193 nM
B15: chymase C22S/P38Q/K40M/F41R/L99N/V138I/F173Y/D175F/A190S/V213A/S218V/A226R (enzyme)
chain: B2 chain with A28M, H86N, N159F, L201V

fB Cleavage EC50: 465 nM
B17: chymase C22S/P38Q/K40M/F41R/V138I/F173Y/D175Y/A190S/V213A/S218I/A226R (enzyme)
chain: B2 chain with A28M, H86L, N159Y, L201I

fB Cleavage EC50: 956 nM
B18: chymase C22S/P38Q/K40M/F41K/L99W/V138I/F173M/A190S/V213A/S218N/A226R (enzyme)
chain: B2 chain with A28M, R29K, H86W, Y157M, N159D, L201N

fB Cleavage EC50: 51 nM
B19: chymase C22S/P38Q/K40M/F41R/V138I/F173L/D175R/A190S/V213A/S218T/A226R (enzyme)
chain: B2 chain with A28M, H86L, Y157L, N159R, L201T
